Laboratory results published in US20160311881A1 (Eli Lilly, published 2016).
Non-standard residues stand in square brackets, D forms with d. No end group written: not given here. Aib = CC(C)(N)C(=O)O

Columns and labels:
[1] = molecular target: T1, human glucagon-like peptide 1 receptor (hGLP-1R) (human, UniProt P43220 24-463); experiment: SPA competition against 125I-labelled GLP-1 amide on hGLP-1R membranes; Cheng-Prusoff
T1 construct: whole, on cells; The assay used crude plasma membranes of the expressing 293HEK cells

[2] = molecular target: T2, human glucose-dependent insulinotropic peptide receptor (GIP-R) (human, UniProt P48546 22-466); experiment: SPA competition against 125I-labelled GIP on human GIP-R membranes; Cheng-Prusoff
T2 construct: whole, on cells; The assay used crude plasma membranes of the expressing CHO-S cells; also called human GIP-R; hGIP-R
T2 sequence (looked up): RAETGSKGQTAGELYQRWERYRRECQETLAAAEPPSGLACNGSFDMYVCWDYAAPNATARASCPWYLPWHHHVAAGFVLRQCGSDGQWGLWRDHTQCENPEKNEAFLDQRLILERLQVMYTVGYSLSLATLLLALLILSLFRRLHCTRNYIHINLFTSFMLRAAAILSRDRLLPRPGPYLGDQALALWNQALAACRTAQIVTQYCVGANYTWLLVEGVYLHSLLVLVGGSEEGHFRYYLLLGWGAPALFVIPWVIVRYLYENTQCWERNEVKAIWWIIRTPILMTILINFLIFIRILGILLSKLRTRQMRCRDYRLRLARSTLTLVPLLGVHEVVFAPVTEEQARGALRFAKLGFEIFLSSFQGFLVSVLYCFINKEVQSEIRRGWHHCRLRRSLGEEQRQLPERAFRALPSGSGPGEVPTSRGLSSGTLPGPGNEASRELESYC

[3] = molecular target: T3, human glucagon receptor (hGR) (human, UniProt P47871 26-477); experiment: SPA competition against 125I-labelled glucagon on hGR membranes; Cheng-Prusoff
T3 construct: whole, on cells; The cAMP assay used whole cells of the same line
T3 sequence (P47871 26-477): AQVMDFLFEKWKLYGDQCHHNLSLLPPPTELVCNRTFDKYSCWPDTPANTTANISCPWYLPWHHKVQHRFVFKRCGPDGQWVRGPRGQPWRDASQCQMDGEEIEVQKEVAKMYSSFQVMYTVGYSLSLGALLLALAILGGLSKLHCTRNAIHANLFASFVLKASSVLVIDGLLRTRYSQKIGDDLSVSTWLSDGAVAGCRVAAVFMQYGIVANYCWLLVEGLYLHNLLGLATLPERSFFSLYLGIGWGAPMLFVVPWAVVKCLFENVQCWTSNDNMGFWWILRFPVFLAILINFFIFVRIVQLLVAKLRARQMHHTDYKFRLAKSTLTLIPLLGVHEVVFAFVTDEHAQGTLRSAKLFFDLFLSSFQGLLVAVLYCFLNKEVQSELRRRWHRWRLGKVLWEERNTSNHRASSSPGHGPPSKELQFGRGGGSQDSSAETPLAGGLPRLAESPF
Experimental: Plates are sealed, mixed end over end, and read with a MicroBeta® scintillation counter after 12 hours of settling time at room temperature.

[4] = molecular target: T4, mouse glucagon receptor (mGR) (mouse, UniProt Q61606 27-485); experiment: SPA competition against 125I-labelled glucagon on mGR membranes; Cheng-Prusoff
T4 construct: whole, on cells; The assay used crude plasma membranes of the expressing 293HEK cells
T4 sequence (Q61606 27-485): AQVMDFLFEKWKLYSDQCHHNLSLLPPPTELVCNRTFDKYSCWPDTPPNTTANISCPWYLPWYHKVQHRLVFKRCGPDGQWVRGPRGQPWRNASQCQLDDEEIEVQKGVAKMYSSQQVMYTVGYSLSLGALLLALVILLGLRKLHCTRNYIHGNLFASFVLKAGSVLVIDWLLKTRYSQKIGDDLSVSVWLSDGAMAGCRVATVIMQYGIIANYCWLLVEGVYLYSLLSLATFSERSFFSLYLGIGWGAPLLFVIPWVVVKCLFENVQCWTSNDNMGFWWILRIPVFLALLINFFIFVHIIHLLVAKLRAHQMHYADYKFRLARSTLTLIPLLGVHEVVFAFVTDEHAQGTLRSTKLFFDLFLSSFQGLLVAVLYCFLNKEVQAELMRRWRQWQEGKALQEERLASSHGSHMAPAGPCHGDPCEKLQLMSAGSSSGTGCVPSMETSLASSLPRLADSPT

[5] = molecular target: T3, human glucagon receptor (hGR); experiment: cell-based or functional assay

- Ki [1]: 1220 nM
- Ki [2]: 1050 nM
- Ki [3]: 0.397 nM
- Ki [4]: 0.494 nM
- hGR stimulated cAMP functional assay (HTRF), relative EC50 [5]: 0.0356 nM
B1: compound of SEQ ID NO: 2 (peptide)
peptide: HAQGTFLSDYSKYLD[Aib]KKAQEFVEWLLKTGPSSGAPPKSK-NH2
modifications: N-terminus assumed
SMILES: CC(C)C[C@H](NC(=O)[C@H](Cc1c[nH]c2ccccc12)NC(=O)[C@H](CCC(=O)O)NC(=O)[C@@H](NC(=O)[C@H](Cc1ccccc1)NC(=O)[C@H](CCC(=O)O)NC(=O)[C@H](CCC(N)=O)NC(=O)[C@H](C)NC(=O)[C@H](CCCCN)NC(=O)[C@H](CCCCN)NC(=O)C(C)(C)NC(=O)[C@H](CC(=O)O)NC(=O)[C@H](CC(C)C)NC(=O)[C@H](Cc1ccc(O)cc1)NC(=O)[C@H](CCCCN)NC(=O)[C@H](CO)NC(=O)[C@H](Cc1ccc(O)cc1)NC(=O)[C@H](CC(=O)O)NC(=O)[C@H](CO)NC(=O)[C@H](CC(C)C)NC(=O)[C@H](Cc1ccccc1)NC(=O)[C@@H](NC(=O)CNC(=O)[C@H](CCC(N)=O)NC(=O)[C@H](C)NC(=O)[C@@H](N)Cc1c[nH]cn1)[C@@H](C)O)C(C)C)C(=O)N[C@@H](CC(C)C)C(=O)N[C@@H](CCCCN)C(=O)N[C@H](C(=O)NCC(=O)N1CCC[C@H]1C(=O)N[C@@H](CO)C(=O)N[C@@H](CO)C(=O)NCC(=O)N[C@@H](C)C(=O)N1CCC[C@H]1C(=O)N1CCC[C@H]1C(=O)N[C@@H](CCCCN)C(=O)N[C@@H](CO)C(=O)N[C@@H](CCCCN)C(N)=O)[C@@H](C)O
notes: Synthetic 40-residue glucagon analog made by solid-phase synthesis on Rink amide resin
